# From US20170008928A1, “NOVEL PEPTIDES AND PEPTIDE DERIVATIVES AND USES THEREOF” (Novo Nordisk A/S, priority 2015, published 2017)
# Starred links: 1 amine or outer side, 2 acyl side, 3 side chain; linkers in the order of their positions; H or OH if unused. Non-standard residues stand in square brackets, D forms with d. Residues, ends and D or L forms follow the SMILES beside them. No end group written: not given here. *: point of attachment. sY = N[C@@H](Cc1ccc(OS(=O)(=O)O)cc1)C(=O)O; C18 diacid = O=C(O)CCCCCCCCCCCCCCCCC(=O)*; C16 diacid = O=C(O)CCCCCCCCCCCCCCC(=O)*; γGlu = O=C(O)[C@H](CCC(=O)[*:2])N[*:1]; C14 diacid = O=C(O)CCCCCCCCCCCCC(=O)*; NMeF = CN[C@@H](Cc1ccccc1)C(=O)O; dNMeD = CN[C@H](CC(=O)O)C(=O)O; Nle = CCCC[C@H](N)C(=O)O; AEEA = NCCOCCOCC(=O)O
# T1: human cholecystokinin-2 receptor (human, UniProt P32239 1-447)
# T1 sequence (looked up): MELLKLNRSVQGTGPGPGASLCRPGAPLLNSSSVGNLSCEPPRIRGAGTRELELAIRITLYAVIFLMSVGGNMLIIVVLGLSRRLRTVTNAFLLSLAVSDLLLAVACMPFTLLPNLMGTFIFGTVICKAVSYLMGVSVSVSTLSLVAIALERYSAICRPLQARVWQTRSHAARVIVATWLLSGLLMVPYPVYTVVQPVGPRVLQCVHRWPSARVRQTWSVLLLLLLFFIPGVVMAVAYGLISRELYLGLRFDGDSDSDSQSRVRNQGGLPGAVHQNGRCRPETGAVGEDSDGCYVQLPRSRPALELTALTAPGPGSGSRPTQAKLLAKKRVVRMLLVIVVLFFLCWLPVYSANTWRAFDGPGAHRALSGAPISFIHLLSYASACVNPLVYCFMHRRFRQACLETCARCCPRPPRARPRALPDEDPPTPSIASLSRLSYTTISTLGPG
# T2: human cholecystokinin-2 receptor (CCK-2R) (Homo sapiens, UniProt P32239)
# T2 construct: host or cells: 1321-N1 cells (plasma membranes prepared by Evotec AG Hamburg)
# T2 sequence (P32239 1-447): T1 sequence (looked up)
# B1: Glu-sTyr-Leu-Gly-Trp-Nle-DMeAsp-Phe-amide (peptide)
# peptide: E[sY]LGW[Nle][dNMeD]F-NH2
# modifications: N-terminus assumed
# SMILES: CCCC[C@H](NC(=O)[C@H](Cc1c[nH]c2ccccc12)NC(=O)CNC(=O)[C@H](CC(C)C)NC(=O)[C@H](Cc1ccc(OS(=O)(=O)O)cc1)NC(=O)[C@@H](N)CCC(=O)O)C(=O)N(C)[C@H](CC(=O)O)C(=O)N[C@@H](Cc1ccccc1)C(N)=O
# notes: X = Nle or Nal
# Target: T1, human cholecystokinin-2 receptor
# Experiment: cell-based or functional assay
# Settings: not given
row,EC50 (CCK-2R) [nM],Molecule
1,> 1000,2-[2-[2-[[2-[2-[2-[[(4S)-4-Carboxy-4-(13-carboxytridecanoylamino)butanoyl]amino]ethoxy]ethoxy]acetyl]amino]ethoxy]ethoxy]acetyl-Asp-Phe(4-sulfomethyl)-Leu-Gly-Trp-Nle-DMeAsp-MePhe-amide (peptide)
2,> 1000,2-[2-[2-[[2-[2-[2-[[(4S)-4-Carboxy-4-(15-carboxypentadecanoylamino)butanoyl]amino]ethoxy]ethoxy]acetyl]amino]ethoxy]ethoxy]acetyl-Asp-Phe(4-sulfomethyl)-Leu-Gly-Trp-Nle-DMeAsp-MePhe-amide (peptide)
3,> 1000,2-[2-[2-[[2-[2-[2-[[(4S)-4-Carboxy-4-(17-carboxyheptadecanoylamino)butanoyl]amino]ethoxy]ethoxy]acetyl]amino]ethoxy]ethoxy]acetyl-Asp-Phe(4-sulfomethyl)-Nle-Gly-Trp-Nle-DMeAsp-MePhe-amide (peptide)
4,> 1000,2-[2-[2-[[2-[2-[2-[[(4S)-4-Carboxy-4-(17-carboxyheptadecanoylamino)butanoyl]amino]ethoxy]ethoxy]acetyl]amino]ethoxy]ethoxy]acetyl-DAsp-Phe(4-sulfomethyl)-Nle-Gly-Trp-Nle-DMeAsp-MePhe-amide (peptide)
5,> 1000,2-[2-[2-[[2-[2-[2-[[(4S)-4-Carboxy-4-(17-carboxyheptadecanoylamino)butanoyl]amino]ethoxy]ethoxy]acetyl]amino]ethoxy]ethoxy]acetyl-DbAsp-Phe(4-sulfomethyl)-Nle-Gly-Trp-Nle-DMeAsp-MePhe-amide (peptide)
6,> 1000,2-[2-[2-[[2-[2-[2-[[(4S)-4-Carboxy-4-(17-carboxyheptadecanoylamino)butanoyl]amino]ethoxy]ethoxy]acetyl]amino]ethoxy]ethoxy]acetyl-bAsp-Phe(4-sulfomethyl)-Nle-Gly-Trp-Nle-DMeAsp-MePhe-amide (peptide)
7,> 1000,2-[2-[2-[[2-[2-[2-[[(4S)-4-Carboxy-4-(19-carboxynonadecanoylamino)butanoyl]amino]ethoxy]ethoxy]acetyl]amino]ethoxy]ethoxy]acetyl-Asp-Phe(4-sulfomethyl)-Leu-Gly-Trp-Nle-DMeAsp-MePhe-amide (peptide)
8,> 1000,Asp-Phe(4-sulfomethyl)-Leu-Gly-Trp-Nle-DMeAsp-MePhe-amide (peptide)
9,> 1000,Asp-sTyr-His-Gly-Trp-Nle-DMeAsp-MePhe-amide (peptide)
10,> 1000,Asp-sTyr-Ile-Gly-Trp-Nle-DMeAsp-MePhe-amide (peptide)
11,> 1000,Asp-sTyr-Leu-Gly-Trp-Nle-DMeAsp-Phe-amide (peptide)
12,> 1000,Asp-sTyr-Nle-Gly-Trp-Nle-DMeAsp-MePhe-amide (peptide)
13,> 1000,Asp-sTyr-Pro-Gly-Trp-Nle-DMeAsp-MePhe-amide (peptide)
14,> 1000,DGlu-sTyr-Leu-Gly-Trp-Nle-DMeAsp-MePhe-amide (peptide)
15,920,Glu-sTyr-Leu-Gly-Trp-Nle-DMeAsp-MePhe-amide (peptide)
16,> 1000,{C18 diacid-γGlu-AEEA-AEEA}-E[sY]LGWQ[dNMeD]F-NH2
17,> 1000,E[sY]LGWQ[dNMeD]F-NH2 [Glu-sTyr-Leu-Gly-Trp-Gln-DMeAsp-Phe-amide]
18,> 1000,B1

# Target: T2, human cholecystokinin-2 receptor (CCK-2R)
# Experiment: In vitro potency on CCK-2R, whole cell functional assay (IP1 accumulation, IP-One HTRF)
# Assay type: cell-based
# Settings: not given
row,Molecule,EC50 [nM]
1,"CCCC[C@H](NC(=O)[C@H](Cc1c[nH]c2ccccc12)NC(=O)CNC(=O)[C@H](CC(C)C)NC(=O)[C@H](Cc1ccc(OS(=O)(=O)O)cc1)NC(=O)[C@H](CC(=O)O)NC(=O)COCCOCCNC(=O)COCCOCCNC(=O)CC[C@H](NC(=O)CCCCCCCCCCCCCCCCC(=O)O)C(=O)O)C(=O)N(C)[C@H](CC(=O)O)C(=O)N(C)[C@@H](Cc1ccccc1)C(N)=O [Example 9, 2-[2-[2-[[2-[2-[2-[[(4S)-4-Carboxy-4-(17-carboxyheptadecanoylamino)butanoyl]amino]ethoxy]ethoxy]acetyl]amino]ethoxy]ethoxy]acetyl-Asp-sTyr-Leu-Gly-Trp-Nle-DMeAsp-MePhe-amide]",170

# Same assay, conditions: 1321-N1 cells stably expressing CCK-2R; IP1 accumulation; highest dose tested 1×10^6 pM; read-out: EC50 (CCK-2R)
row,EC50 [nM],Molecule
1,> 1000,"CCCC[C@H](NC(=O)[C@H](Cc1ccc(OS(=O)(=O)O)cc1)NC(=O)[C@H](CC(=O)O)NC(=O)COCCOCCNC(=O)COCCOCCNC(=O)CC[C@H](NC(=O)CCCCCCCCCCCCCCCCC(=O)O)C(=O)O)C(=O)NCC(=O)N[C@@H](Cc1c[nH]c2ccccc12)C(=O)N[C@@H](CCCC)C(=O)N(C)[C@H](CC(=O)O)C(=O)N[C@@H](Cc1c[nH]c2ccccc12)C(N)=O [Example 1, 2-[2-[2-[[2-[2-[2-[[(4S)-4-Carboxy-4-(17-carboxyheptadecanoylamino)butanoyl]amino]ethoxy]ethoxy]acetyl]amino]ethoxy]ethoxy]acetyl-Asp-sTyr-Nle-Gly-Trp-Nle-DMeAsp-Trp-amide] ({C18 diacid-γGlu-AEEA-AEEA}-D[sY][Nle]GW[Nle][dNMeD]W-NH2)"
2,150,"CCCC[C@H](NC(=O)[C@H](Cc1c[nH]c2ccccc12)NC(=O)CNC(=O)[C@H](CC(C)C)NC(=O)[C@H](Cc1ccc(OS(=O)(=O)O)cc1)NC(=O)[C@H](CCC(=O)O)NC(=O)COCCOCCNC(=O)COCCOCCNC(=O)CC[C@H](NC(=O)CCCCCCCCCCCCC(=O)O)C(=O)O)C(=O)N(C)[C@H](CC(=O)O)C(=O)N(C)[C@@H](Cc1ccccc1)C(N)=O [Example 36, 2-[2-[2-[[2-[2-[2-[[(4S)-4-Carboxy-4-(13-carboxytridecanoylamino)butanoyl]amino]ethoxy]ethoxy]acetyl]amino]ethoxy]ethoxy]acetyl-Glu-sTyr-Leu-Gly-Trp-Nle-DMeAsp-MePhe-amide] ({C14 diacid-γGlu-AEEA-AEEA}-E[sY]LGW[Nle][dNMeD][NMeF]-NH2)"
3,110,"CCCC[C@H](NC(=O)[C@H](Cc1c[nH]c2ccccc12)NC(=O)CNC(=O)[C@H](CC(C)C)NC(=O)[C@H](Cc1ccc(OS(=O)(=O)O)cc1)NC(=O)[C@H](CCC(=O)O)NC(=O)COCCOCCNC(=O)COCCOCCNC(=O)CC[C@H](NC(=O)CCCCCCCCCCCCCCC(=O)O)C(=O)O)C(=O)N(C)[C@H](CC(=O)O)C(=O)N(C)[C@@H](Cc1ccccc1)C(N)=O [Example 39, 2-[2-[2-[[2-[2-[2-[[(4S)-4-Carboxy-4-(15-carboxypentadecanoylamino)butanoyl]amino]ethoxy]ethoxy]acetyl]amino]ethoxy]ethoxy]acetyl-Glu-sTyr-Leu-Gly-Trp-Nle-DMeAsp-MePhe-amide] ({C16 diacid-γGlu-AEEA-AEEA}-E[sY]LGW[Nle][dNMeD][NMeF]-NH2)"
4,> 1000,"CCCC[C@H](NC(=O)[C@H](Cc1c[nH]c2ccccc12)NC(=O)CNC(=O)[C@H](Cc1c[nH]cn1)NC(=O)[C@H](Cc1ccc(OS(=O)(=O)O)cc1)NC(=O)[C@H](CC(=O)O)NC(=O)COCCOCCNC(=O)COCCOCCNC(=O)CC[C@H](NC(=O)CCCCCCCCCCCCCCCCC(=O)O)C(=O)O)C(=O)N(C)[C@H](CC(=O)O)C(=O)N(C)[C@@H](Cc1ccccc1)C(N)=O [Example 48, 2-[2-[2-[[2-[2-[2-[[(4S)-4-Carboxy-4-(17-carboxyheptadecanoylamino)butanoyl]amino]ethoxy]ethoxy]acetyl]amino]ethoxy]ethoxy]acetyl-Asp-sTyr-His-Gly-Trp-Nle-DMeAsp-MePhe-amide] ({C18 diacid-γGlu-AEEA-AEEA}-D[sY]HGW[Nle][dNMeD][NMeF]-NH2)"
5,46,"CCCC[C@H](NC(=O)[C@H](Cc1c[nH]c2ccccc12)NC(=O)CNC(=O)[C@H](CC(C)C)NC(=O)[C@H](Cc1ccc(OS(=O)(=O)O)cc1)NC(=O)[C@@H](CCC(=O)O)NC(=O)COCCOCCNC(=O)COCCOCCNC(=O)CC[C@H](NC(=O)CCCCCCCCCCCCCCCCC(=O)O)C(=O)O)C(=O)N(C)[C@H](CC(=O)O)C(=O)N(C)[C@@H](Cc1ccccc1)C(N)=O [Example 49, 2-[2-[2-[[2-[2-[2-[[(4S)-4-Carboxy-4-(17-carboxyheptadecanoylamino)butanoyl]amino]ethoxy]ethoxy]acetyl]amino]ethoxy]ethoxy]acetyl-DGlu-sTyr-Leu-Gly-Trp-Nle-DMeAsp-MePhe-amide] ({C18 diacid-γGlu-AEEA-AEEA}-[dE][sY]LGW[Nle][dNMeD][NMeF]-NH2)"
6,380,"CCCC[C@H](NC(=O)[C@H](Cc1c[nH]c2ccccc12)NC(=O)CNC(=O)[C@H](CC(C)C)NC(=O)[C@H](Cc1ccc(OS(=O)(=O)O)cc1)NC(=O)[C@@H](N)CC(=O)O)C(=O)N(C)[C@H](CC(=O)O)C(=O)N(C)[C@@H](Cc1ccccc1)C(N)=O [Example 60, Asp-sTyr-Leu-Gly-Trp-Nle-DMeAsp-MePhe-amide]"
